From patent publication US20240261333A1, “NOVEL TARGETS FOR ENHANCING ANTI-TUMOR IMMUNITY” (THE BROAD INSTITUTE, INC., priority 2021, published 2024) come the findings set out here.

The target in the assay is RPS13 (UniProt P62277). The experiment in a line: co-IP, IgG control, N-FLAG B3GNT2 cell lysate, mass spectrometry.

Substance “IgG control (Millipore Sigma 12-371) (antibody)” showed a co-IP mass spectrometry count of 2.
